From article PMC12032302, “A20 attenuates oxidized self-DNA-mediated inflammation in acute kidney injury” (Signal Transduction and Targeted Therapy, 2025)

Key:
[1] = biological target: T1, recombinant human NEK7 protein (human, UniProt Q8TDX7 1-302); experiment: BLI; peptide immobilised on Octet AR2G biosensors at 400 μg/ml for 500 s; recombinant human NEK7 39.0625 to 1250 nM, association 120 s, dissociation 120 s; 1:1 binding model; conditions: both partners purified
T1 construct: NEK7, human, recombinant; source: bought: SinoBiological
T1 sequence (Q8TDX7 whole entry): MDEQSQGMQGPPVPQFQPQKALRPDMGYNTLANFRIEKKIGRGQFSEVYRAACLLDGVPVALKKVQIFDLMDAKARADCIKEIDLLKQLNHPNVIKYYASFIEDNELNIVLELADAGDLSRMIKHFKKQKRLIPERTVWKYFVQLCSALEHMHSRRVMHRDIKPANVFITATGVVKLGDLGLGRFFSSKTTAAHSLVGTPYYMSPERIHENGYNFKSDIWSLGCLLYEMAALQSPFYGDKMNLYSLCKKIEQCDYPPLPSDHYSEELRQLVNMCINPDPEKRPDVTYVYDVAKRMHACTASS

[2] = biological target: T2, HA-NEK7 (mouse NIMA-related kinase 7, wild type) (mouse, UniProt Q9ES74 1-302); experiment: BLI; 3×HA-NEK7 (WT or Tri-MUT) purified from HEK293T with HA antibody; legend: P-II diluted into the indicated concentrations; methods: peptide immobilised on AR2G biosensors; 1:1 binding model; conditions: both partners purified
T2 construct: NEK7, mouse, cDNA amplified from a mouse cDNA library; also called WT-NEK7; HA-WT-NEK7; source: HEK293T, transiently transfected, in lysate; for BLI purified with HA antibody, eluted with 0.1 M glycine pH 2.0
T2 sequence (Q9ES74 whole entry): as the sequence (Q8TDX7 whole entry) above, with P14T, A52S, E150D, M273I, V285I, T286A, S302T counted along it

binding result [1]: binds
binding result [2]: binds
B1: A20-derived peptide P-II (peptide)
peptide: KLVALKTNGDGNCLMHAACQYMWGVQDTD
notes: peptide generated according to the OTU domain of A20; also called NEK7 targeting peptide; source: synthetic peptide (constructed by GeneWiz; for BLI: Bootech BioScience &Technology)
